Results on 27 sequences are retold here after the supplement of paper PMC12764529.

Data set [1] can be described thus: folding stability dG unfold (combined trypsin and chymotrypsin); higher = more stable. The essentials:
(§1)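 Unfolding free energy was derived, per protease or combined, against a sequence-predicted unfolded-state K50 and a shared folded-state K50, starting from K50 inferred by Bayesian fitting of sequencing counts. Digestion with trypsin and chymotrypsin was carried out on designed mini-proteins under 80 residues without cysteine in a PA-tagged cDNA display construct. Only designs with AlphaFold2 dimer inter-PAE above 15 were kept.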

Data set [2] can be described thus: folding stability dG unfold from chymotrypsin proteolysis; higher = more stable. The essentials: as §1
Data set [3] can be described thus: folding stability dG unfold from trypsin proteolysis; higher = more stable. The essentials: as §1

± gives the half width of the 95% confidence interval.

Take “SAGSKKYIPKEVTVYVLGTAPPDMSLEEALKNPNFAVSVPLKATVIYDPETKTARVLLPDGTVVEFPVPSAG [r5_701_TrMRF]”: the “folding stability dG unfold” value in data set [1] is 1.52 ± 0.1 kcal/mol; in data set [2], 1.44 ± 0.11 kcal/mol; in data set [3], 1.5 ± 0.049 kcal/mol.
For “SAGSKVIMIPWEDAEKLIEDLPPGKNVTIHWMWPKGPYWTHTIEVKGDKIKIEPLPPNQFPGWRIMITKSAG [r5_85_TrROS]” the same measures were 1.65 ± 0.22 kcal/mol, 1.45 ± 0.17 kcal/mol and 1.86 ± 0.13 kcal/mol.
For “SAGSMEELIANGGTISEERTLPGGEKVFTTTTLTYAPDGTPVINTETTVTTTPPDGTTTPSTSTSTVPLSAG [r5_24_JUSTAS]”, in that order: 1.04 ± 0.035 kcal/mol, 0.957 ± 0.058 kcal/mol and 1.04 ± 0.038 kcal/mol.
For “SAGSMELLEKKEGKLPDGRVYTTETLRNPANGLYEVKTFVFEPGGNPLAEERITYEGDKLVSSETIYLGSAG [r14_828_JUSTAS]” the same measures were 0.594 ± 0.077 kcal/mol, 0.842 ± 0.075 kcal/mol and 0.199 ± 0.04 kcal/mol.
For “SAGSMRITVEITFTSPEGVVKTKTVEVDLSSGSIDLSPEVIEAAKKELGLPPNVTVTLTVVEERPELESAGG [r19_287_JUSTAS]”, the “folding stability dG unfold” value in data set [1] was 3.69 ± 0.11 kcal/mol; in data set [2] it was 3.37 ± 0.11 kcal/mol; in data set [3], 4.06 ± 0.22 kcal/mol.
For “SAGSMTLESEDPSSGLRVTVTVEREPFLLPDGTRVLRRTVTTTVTTPDGEVLESEDVEVVAVLPPDAPLSAG [r5_871_JUSTAS]” the same measures were 2.46 ± 0.077 kcal/mol, 2.43 ± 0.04 kcal/mol and 2.4 ± 0.085 kcal/mol.
“SAGSMTPEEIRERIEALAEEVGEPPVRVLLKGPSGPLYELDVRFTPEHLEEARRALGVDVVEVEPVPESAGG [r19_50_JUSTAS]”: the figures for the “folding stability dG unfold” value in data set [1], in data set [2] and in data set [3] were -0.00549 ± 0.17 kcal/mol, -0.512 ± 0.32 kcal/mol and 0.297 ± 0.068 kcal/mol, respectively.
For “SAGSMVEERVRELLRELDPERPWEIERLPDGTIVARDPETGRWYIFKVEPDGTVTLERVLSLEEYERLSSAG [r5_852_JUSTAS]”, the “folding stability dG unfold” value in data set [1] was 4.42 ± 0.11 kcal/mol; in data set [2], 4.78 ± 0.076 kcal/mol; in data set [3] it was 3.37 ± 0.075 kcal/mol.
For “SAGSNKPIKLKAIIEKPKEKKEIEIEIDPNESIESALKKILEKLEPEWKIVIELPNGIKIEFPPSKEMYSAG [r5_77_TrMRF]”, in that order: 0.91 ± 0.15 kcal/mol, 0.0227 ± 0.18 kcal/mol and 1.37 ± 0.083 kcal/mol.
Take “SAGSNTIWYPFPLKEIKEAISSGQSMEEIADELSERHGEEVPIEYPNMKIRIYVPEPGPLYVRIEMTPDSAG [r5_343_TrROS]”: the “folding stability dG unfold” value in data set [1] was 0.734 ± 0.14 kcal/mol; in data set [2] it was 0.907 ± 0.098 kcal/mol; in data set [3], 0.519 ± 0.2 kcal/mol.
In the case of “SAGSPIEELAKKIAEPKYKEEKKPNLTIKVEIEVTVTTSVPVKLPNGEPAYKTTEVKIKVKLTINIPEGSAG [r5_297_JUSTAS]”, the “folding stability dG unfold” value was found to be 3.39 ± 0.46 kcal/mol in data set [1], 3.63 ± 0.48 kcal/mol in data set [2] and 3 ± 0.16 kcal/mol in data set [3].
For “SAGSPSMVVTVRLTVTTTDPVTGTTTTTTLDIPVSPASLSTPPAQVAAALTAAAPATTIDVTVDSVLLSAGG [r19_189_JUSTAS]”, in that order: 1.51 ± 0.037 kcal/mol, 1.06 ± 0.06 kcal/mol and 1.794 ± 0.017 kcal/mol.
For “SAGSPVLATLRTYDPVAKKWTESVYPVSDPEALIAEVAAELGVEVEVDPATGVATAPLPDGRLVVVTVVSAG [r5_937_JUSTAS]” the same measures were 1.45 ± 0.051 kcal/mol, 1.56 ± 0.014 kcal/mol and 1.2 ± 0.036 kcal/mol.
For “SAGSPVTVPLTLTLTYTVNNPEGPEVLKTETIPLPLVFSPEELDDEETKALLQALVDALPDDVSEVVLESAG [r5_849_JUSTAS]” the same measures were 1.38 ± 0.046 kcal/mol, 1.43 ± 0.079 kcal/mol and 1.32 ± 0.02 kcal/mol.
As to “SAGSSLPPSLSKEEIVAALKSQGYTSVKEEKLPDPNKSRMVFTHPNSVVTVEFFPNSVTVTTVPLSVPSSAG [r5_899_JUSTAS]”, the “folding stability dG unfold” value turned out to be 0.968 ± 0.23 kcal/mol in data set [1], 1.32 ± 0.16 kcal/mol in data set [2] and 0.0126 ± 0.28 kcal/mol in data set [3].
For the sequence “SAGSSMSSTVRVEVTLTNPVTEVSPDGKTYTTPGDTVAVPVLINVSTTTYYNSSNPSDVVTETTTTVALSAG [r14_274_JUSTAS]”, the “folding stability dG unfold” value stood at 1.18 ± 0.09 kcal/mol in data set [1], 1.22 ± 0.19 kcal/mol in data set [2] and 1.07 ± 0.026 kcal/mol in data set [3].
As for “SAGSSPSLVLKVEIPVEIKEKRKFLLPNGETKTELTTRTITHTIVVEAGTDPAKLEEALALAEEIKEKKSAG [r14_830_JUSTAS]”, the “folding stability dG unfold” value in data set [1] is -0.276 ± 0.25 kcal/mol; in data set [2], 0.00535 ± 0.31 kcal/mol; in data set [3], -0.85 ± 0.57 kcal/mol.
For “SAGSSVSVSYDPNNPDKMTITITDPANGTQVSAVTAPVYKRPDGTIVVPLTITFPASGKVTTKTFTIPASAG [r5_610_JUSTAS]”, in that order: 1.22 ± 0.059 kcal/mol, 1.13 ± 0.09 kcal/mol and 1.22 ± 0.019 kcal/mol.
As to “SAGSTAELVGHPDGVELRTELRGEELVFVLPAPKDVLVVAYDPATGALVLGVPVGDRVLVLVRPPPHPSAGG [r19_384_TrMRF]”, the “folding stability dG unfold” value was 3.53 ± 0.23 kcal/mol in data set [1], 3.88 ± 0.099 kcal/mol in data set [2] and 2.54 ± 0.079 kcal/mol in data set [3].
For “SAGSVTSVEVKEKGEVTVTTETLNIDGKPYTVVSTTTPLLDPEGNVTYTTTTTVYDPNGNKISTTPTSLSAG [r14_465_JUSTAS]”, the entries for the “folding stability dG unfold” value in data set [1], in data set [2] and in data set [3] were 1.84 ± 0.051 kcal/mol, 2.14 ± 0.032 kcal/mol and 1.33 ± 0.033 kcal/mol, respectively.
For “SAGTADELVERAKEFARELAEEFGYKVDVDVKVQPTPDYYTIKVTVTFRNPGGMTWRFPFTITIPKEQFSAG [r5_609_TrROS]” the same measures were 4.29 ± 0.16 kcal/mol, 4.91 ± 0.14 kcal/mol and 3.45 ± 0.15 kcal/mol.
Consider “SAGTAEEAKELARFFARELAPRNGMDVEIPDIKVETDPENGWIRITVEITFRWPHGRKQKHPFTIQIPVSAG [r5_381_TrROS]”, for which the “folding stability dG unfold” value in data set [1] came to 1.47 ± 0.063 kcal/mol; in data set [2], 1.25 ± 0.096 kcal/mol; in data set [3], 1.48 ± 0.047 kcal/mol.
For “SAGTEEELVERAKELARELAEELGVEAEAEVTVDPLPDVLVVNLTVRLRLPGGETVELPLTLTFPREFLSAG [r5_609_TrMRF]” the same measures were 3.08 ± 0.05 kcal/mol, 3.3 ± 0.035 kcal/mol and 2.71 ± 0.095 kcal/mol.
For “SAGTIIIPMKEIREELGYPPGSPPSQMRDRIRDLIRRLYPRGIRPTDIDIESNGDNWYITVDIKLPPGASAG [r14_158_TrROS]” the same measures were 2.63 ± 0.11 kcal/mol, 2.76 ± 0.053 kcal/mol and 2.26 ± 0.058 kcal/mol.
Take “SAGTIKEIAETIAEFMRQNGMNIKVKLTEVDPNDPNYVKVRVEIEMWYYKKNGKPLGPMRHTMTIVIRSAGG [r19_418_TrROS]”: the “folding stability dG unfold” value in data set [1] was 2.92 ± 0.29 kcal/mol; in data set [2] it was 3.42 ± 0.13 kcal/mol; in data set [3] it was 2.84 ± 0.11 kcal/mol.
For “SAGTIRIVVPAEELSDEEIEALAEELRKLFPNAKIVRVERRVETLPDGRKRTYVVLEIHIELPPPPEEESAG [r5_835_TrROS_Hall]” the same measures were 4.26 ± 0.14 kcal/mol, 4.33 ± 0.12 kcal/mol and 4 ± 0.13 kcal/mol.
For “SAGTLEEALEDPSNETVEIEIEIPTGEYPLSDPEKVEELAEEKKKEIEKKLKEKGKNVKIIFKVSLKPLSAG [r5_408_JUSTAS]” the same measures were 0.447 ± 0.16 kcal/mol, 0.213 ± 0.15 kcal/mol and 0.366 ± 0.07 kcal/mol.
